Results: patent US20230192839A1, “ANTIBODIES HAVING CONDITIONAL AFFINITY AND METHODS OF USE THEREOF” (PFIZER INC., priority 2017, published 2023)

Experiments:
Assay type in all cases: cell-based, human
[1] = system: MV4-11 target cells; test: Proliferation of CD33-specific conditional CAR T cells after CAR or TCR stimulation, cell count by flow cytometry; conditions: 100 µM MTX vs no MTX, 7 days, FIG. 7
Description: The example examines the proliferative capabilities of conditional CAR T cells containing an anti-CD33 antibody having conditional affinity after stimulation of the CAR T cell via either the CAR T cell’s i) CAR or ii) TCR. In addition, these were examined in both the presence and absence of methotrexate (MTX).
The anti-CD33 clone used in this example was P02_D09. In addition, a tool T cell was prepared as described in Example 4, as were untransduced T cells. T cells from one PBMC donor were used for this experiment.
(§1) The target cell line used in this assay was MV4-11, as described in Example 5.
The assays were carried out in 96-well plates by culturing 100,000 T cells with various other reagents (depending on the assay), for each of the different T cells described above. In addition, each of the co-cultures contained either 100 µM MTX or 0 µM MTX. In both conditions, 1 mM leucovorin was supplemented to circumvent MTX toxicity. The T cells were stimulated by CAR or TCR as in Example 6. Cultures were maintained in a final volume of 100 ul of RPMI 1640 medium for 7 days at 37 C with 5% CO2. On day 7, cells were collected and counted via flow cytometry (BD LSR II) using 123Count eBeads (Thermo Fisher Scientific).

[2] = system: MV4-11 cells; test: Sequential rounds of in vitro cytotoxicity assays with changing MTX concentration (reversible inhibition); conditions: Round 0-1 no MTX, then 100 µM MTX at Round 1-2 and Round 2-3; FIGS. 9A and 9B
Description: The anti-CD33 clones tested in this example were: P03_A01, P07_C04, and P02_D09. In addition, a tool T cell was prepared as described in Example 4, as were untransduced T cells. Also, each of the different conditional CAR T cells described above was generated in triplicate from PBMC cells from three different human donors. The target cell line used in this assay was MV4-11; these cells were transduced to stably express GFP and firefly luciferase, as described in Example 5.
This experiment involved a series of in vitro cytotoxicity assays, in which co-cultures of T cells and MV4-11 target cells were incubated together for multiple rounds of sequential cytotoxicity assays, in which the MTX concentration changed at different rounds of the assays. In vitro cytotoxicity assays were carried out in 24-well plates by co-culturing 200,000 T cells with 200,000 MV4-11 cells, for each different T cells described above. In addition, each of the co-cultures contained either 100 µM MTX or 0 µM MTX at different times, as indicated by the schematics in FIGS. 9A and 9C. In both conditions, 1 mM leucovorin was supplemented to circumvent MTX toxicity. For each round of the assay, co-cultures were maintained in a final volume of 500 µl of RPMI 1640 medium at 37 C with 5% CO2 for 48 hours. At the end of each round, cells were spun down (250 × g, 10 minutes), supernatant was removed, and fresh media containing fresh MV4-11 cells, leucovorin, and optionally MTX were added according to the schematics shown in FIGS. 9A and 9C. Target cell killing was assessed and plotted as described in Example 4.
In comparing the different panels of FIGS. 9A-9D, note that the schematics shown in FIGS. 9A and 9C indicate the MTX concentration in the co-culture at the start of the assay for a given round, whereas the results from that assay are shown the next round number in FIGS. 9B and 9D, respectively. […]

[3] = system: MV4-11 target cells (which express CD33); test: IL-2 and IFN-γ secretion by CD33-specific conditional CAR T cells after CAR or TCR stimulation; conditions: activation via anti-CD33 CAR by MV4-11 cells; 100 µM MTX; 24 hours; FIGS. 6A and 6C
Description: The example examines the levels secretion of the cytokines IL-2 and IFN-γ by conditional CAR T cells containing an anti-CD33 antibody having conditional affinity, after stimulation of the CAR T cell via either i) the CAR in the CAR T cell or ii) the TCR in the CAR T cell. In addition, these were examined in both the presence and absence of methotrexate (MTX).
The anti-CD33 clone used in this example was P02_D09. […] In addition, a tool T cell was prepared as described in Example 4, as were untransduced T cells.
as §1
Assays were carried out in 96-well plates by culturing 100,000 T cells with various other reagents (depending on the assay), for each of the different T cells described above. Each of the co-cultures contained either 100 µM MTX or 0 µM MTX. In both conditions, 1 mM leucovorin was supplemented to circumvent MTX toxicity. To stimulate the CAR T cells via the anti-CD33 CARs, 100,000 MV4-11 target cells (which express CD33) were included in the culture with the T cells. To stimulate the CAR T cells via the TCR, T cell Activation/Expansion Beads (Miltenyi) were included in the culture with the T cells (i.e. in the absence of target cells). […] The cytokines in the supernatant were measured using U-PLEX Th1/Th2 Combo plates (Meso-Scale Discovery; Rockville, MD) according to the manufacturer’s specifications.

[4] = system: MV4-11 cells; test: Flow cytometry analysis of MTX-dependent CAR T cell activation (CD69) and proliferation (CellTrace); conditions: 100 µM MTX vs 0 µM MTX, with target cells, FIG. 8
Description: The anti-CD33 clone used in this example was P02_D09. CAR T cells containing this clone were generated in duplicate from PBMC cells from two different human donors. The target cell line used in this assay was MV4-11, as described in Example 5.
To assess activation of the conditional CAR T cells described above, in vitro cytotoxicity assays were carried out in 24-well plates by co-culturing 250,000 CAR T cells, with or without 250,000 MV4-11 cells. In addition, each of the co-cultures contained either 100 µM MTX or 0 µM MTX. In all conditions, 1 mM leucovorin was supplemented to circumvent MTX toxicity. Cells were collected after 24 hours of co-culture, labeled with fluorophore-conjugated antibody to CD69 (Biolegend) and analyzed by flow cytometry (BD LSR II). Activation was quantified via detection of the early activation marker, CD69.
To assess proliferative ability of the CAR T cells described above, the cells were prelabelled with the fluorescent intracellular dye, CellTrace Deep Red (Invitrogen), before co-culturing as described immediately above for the CAR T cell activation assay. The co-cultures were incubated for 7 days at 37 C with 5% CO2. On day 7, cells were collected and analyzed via flow cytometry. Dilution of the CellTrace dye (leftward shift of peaks in the histogram) was interpreted as T cell proliferation.

B1: P02_D09: anti-CD33 clone with conditional affinity; VH SEQ ID NO: 35, VL SEQ ID NO: 36; also as scFv in CAR (antibody, V domains shown)
VH: QVQLVESGGGLVQAGGSLRLSCAASRRSSRSWAMHWVRQAPGKGLEWVAVISYDGRLKYYADSVKGRFTISRDNAEYLVYLQMNSLRAEDTAVYYCAAEEGDGGFFDYWGQGTLVTVSS
VL: QSVLTQPPSASGTPGQRVTISCSGSSSNIGSNYVNWYQQLPGTAPKLLIYRNNERPSGVPDRFSGSKSGTSASLAISGLRSEDEADYYCAAWDGSLSGRGVFGTGTKLTVL
modifications: Synthetic Antibody
notes: also as scFv in CAR
proliferative ability, CAR stimulation, presence of MTX ([1]; CAR stimulation (CD33)): dramatically diminished
proliferation, TCR stimulation, presence of MTX ([1]; TCR stimulation (CD3/CD28)): not affected by MTX
target cell killing when MTX is added to active CAR T cells ("on" to "off") [2]: quick inhibition rates
IL-2 and IFN-γ production, CAR stimulation, presence of MTX [3]: reduced back to the level comparable to that of unstimulated T cells
activation (CD69) in the presence of MTX ([4]; 24 hours): dramatically reduced
proliferation (CellTrace dilution) in the presence of MTX ([4]; 7 days): dramatically reduced
